Reference: patent publication US20110020273A1

Target: fusion protein containing the A3B3 domain of CEA (UniProt P06731)
Experiment: competitive ELISA against HRP-conjugated hMN-14 IgG (1 nM)

fusion protein containing the A3B3 domain of CEA, sequence (P06731 499-676): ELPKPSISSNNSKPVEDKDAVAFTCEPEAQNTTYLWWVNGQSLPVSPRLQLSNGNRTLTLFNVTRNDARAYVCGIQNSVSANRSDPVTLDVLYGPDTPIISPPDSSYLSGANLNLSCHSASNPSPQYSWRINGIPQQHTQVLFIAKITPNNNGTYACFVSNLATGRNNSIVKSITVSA

avidity, fold over TF1: 2 fold
Substance: TF2 (bispecific antibody)
